In this assay the target is SUMO1(15-55) (human). Kind of assay: MST (FIG. 11b).
Sequence of SUMO1(15-55) (human) (peptide, as listed by the source limits assumed): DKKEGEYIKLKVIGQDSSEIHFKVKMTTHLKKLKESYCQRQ

In the case of αsyn(33-58) (peptide), the binding ability relative to the sole β1, β2-strand peptides (fold of the sole β1, β2-strand peptides) worked out at 0.037.

Source of the values: US20220194997A1, “SUMO PEPTIDES FOR TREATING NEURODEGENERATIVE DISEASES” (The Chinese University of Hong Kong, priority 2019, published 2022).
